From the nanobody polyreactivity screen of Harvey et al. (2022)

test: yeast display, Sf9 membrane polyspecificity reagent, FACS + sequencing; frameworks hold sequencing errors
Method in brief: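 Sorting gates, low and high (top ~1%), were placed on anti-HA fluorescence to track expression and on streptavidin fluorescence to track reagent binding. A clone's polyreactivity label is taken from the gate it came out of. The reagent was 10% biotinylated, detergent-solubilized Sf9 membrane, applied for 1 hour at 4 °C to galactose-induced yeast display cells.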

Sequence	polyreactivity (PSR sort gate)
QVQLVESGGGLVQAGGSLRLICAASGFIYHNAMGWYRQATGTERELVARITWSGGSTSYADSVKGRFTISRDNAKNTVYLQKNSLKPEDTAVYYCAARGVVYRYGASRGYWGQGTQVTVSS	high polyreactivity
QVQLVESGGGLVQAGGSLRLSCASSGYIFSLSGMGWYRQAPGKERELVAAITGSGGGTYADSVKGRFTISRDNAKNTVYLQMISLKPEDTAVYYCAAGGYRRRFWPIYDYWGQGTQVSVSS	low polyreactivity
QVQLVESGGGLVQAGGSLRLSCAASGRIFLFYAMGWYRQAPGKERELVAGIRSGGSTNYADSVKGRFTISRDNAKNTVYLQMNSLKPEDTAVYYCAAASYFVYPRLEGYWGQGTQVTVSS	low polyreactivity
QVQLVESGGGLVQAGGSLRVSCAASGNTFGPYAMGWYRQAPGKERELVAAISSGGSTNYADSVKGRFTISRDNAKNTVYLQMNSLKPEDTAVYYCARDAFSGSDFSYASIEYDYWGQGTQVTVSS	low polyreactivity
QVHLVESGGGLVQAGGSLRLSCAASGRIYYRYAMGWYRTAPGKERELVAAISASGRTYYADSVKGRFTISRDNAKNTVYLQMNSLKTEDTAVYYCAKVAAGSLGSWGQGTQVTLSS	high polyreactivity
QVQLVESGGGLVQAGGILRLSCAASGLTFAKNAMGWYRQAPGKERELVAAITTGGSTYYADSVKGRFTISRDNAKNTVYLQMNSLKPEDTAVYYCAAQILVRHIPYYFWGQGSQVTVSS	high polyreactivity
QVQLVESGGGLVQAGGSLRLSCAASGRIFGGYAMGWYRQAPGKERELVAAISNGGSTYYADSVKGRFTISRDNAKNTVYLQMNSLKPEDTAVYYCAARWNWTGYRYDHWGQGTQVTVSS	low polyreactivity
QVQLVESGGGLVQAGGSLRLSCAASGRIFTRNTMGWYRQAPGKERELVAAISGRGGSTYYADSVKGRFTISRDNAKNTVYLQMNSLKPEDTAVYYCAADGVYRGGYDYWGQVTQVTVSS	high polyreactivity
QVQLVESGGGLVQAGGSLRLSCAASGFTFPFNAMGWYRQAPGKERELVAAISQRTGRTYYADSVKGRFTISRDNAKNTVYLQMNSLKPEDTAVYYCNARTGTTGYGRYDYWGQGTQVTVSS	high polyreactivity
QVQLVESGGRLVQAGGSLRLSCAASGITFYYYAMGWYRQAPGKERELVAAISSGGTRTYYADSVKGRFTISRDNAKNTVYLQMNSLKPEDTAVYYCAAPTYWHPTYDYWGQGTQVTVSS	high polyreactivity
QVQLVESGGGLVQAGGSLRLSCAASGSTFVDYAMGRYRQAPGKERELVAAITRSGSSTYYADSVKGRFTISRDIAKNTVYLQMNSLKPEDTAVYYCAAVRYRGLQVKFYYWGQGTQVTVSS	high polyreactivity
QVQLVESGGGLVQAGGSLRLSCASSGRIFRWYAMGWYRQAPGKERELVAAISRSGTSTYYADSVKGRFTISRDNAKNTVFLQMNSLKPEDTAVYYCNTDVQVYSYNYWGQGTQVTVSS	low polyreactivity
QVQLVESGGGLVQAGGSLRLSCAASGSTFYVYAMGWYRQAPGKERELVAAITRGGSTYYADSVKGRFTISRDNAKNTVYLQMNSLKPEDTAVYYCAKYLSGAADLVPEYDYWGQGTQVTVSS	low polyreactivity
QGQLVESGGGLDQAGVSLRLSCAASGFIFSFDNAMGWYRQAPGTERELVAAISSGTTTHYADSVKGRFTISRDNAKNTVYLQMNSLKPEDSAVYDCAADSVKQVRYGNVGHDDWGQGTQVTVSS	low polyreactivity
QVQLVESGGGLVQAGGSLRLSCAATGYTLYYNAMGWYIQAPGKERELVAAITSGGSTSYADSVKGRFTISRDNAKNTVYLQMNRLIPEDTAVYYCAAVFYRRFDYWGQGTQVTVSS	low polyreactivity
QVQLVESGGGLVQAGGSLRLSCAASGSTFVGYAMGWYRQAPGKERELVADITWSGTNTYYADSVKGRFTISRDNAKNTVYLQMNSLKPEDTAVYYCAAELELLLVGFFTYRREYWGQGTQVTVSS	low polyreactivity
QVQLEETGGGLVQAGGSLRLSCAASGFTIYRYALGSYRQAPGKERELVAAISSRGGTTYYADSVKGRFTISRDNAKNTVYLQMNSLKPEDTAVYYCNAGYYLTLDYWGQGTQVTVSS	high polyreactivity
QVQLVESGGGIVQAGGSLRLSCAASGRIFGHYAMGWYRPAPGKERELVAAITKNGDSTYYADSVKGRFTISRDNAKNRVYLPMNSLKPEDTAVYYCNAVYDLVCGEGYDSWGQGTQVTVSS	low polyreactivity
QVQLVESGGGLVQAGGSLRLSCAASGFIFYGYAKGWYRQAPGKERELVAGISTGGSKNYADSVKGRFTISRDNAKNTVYVQMNSLKPEDTAVDYCAVVDVEEHVGHWGQGTQVTVSS	low polyreactivity
QVQLVESGGRLVQAGGSLRLSCAASGRTFSNAIGWDRQAPGKEREEVADISSGGSTNYADSVKGRFTISRDNAKNTVYLQMNSLKPEDTAVYYCAAVSGSLYGYSDDYWGQGTQVTVSS	low polyreactivity
QVQLVESGGGLVQAGGSLRLSCAASGRTFVSYAMGWYRQAPGKERELVAAINGNGASTRYADSVKGRFTISRDNAKNTVYLQMNSLKPEDTAVYYCNTGRRFYGYNYWGQGTQVTVSS	high polyreactivity
QVQLVESGVRLVQAGGSHRLSCAANGFIFRRYAMGWYIQAPGKERELVAAITRSGGTTYYADSVKGRFTISRDNAKNTVYFQLNSLKPEDTAVYYCDARRPYTYDSGDILEMDHWGQGTQVTVSS	high polyreactivity
QVQLVESGGGLVQAGGSLRLSCAASGSTFRYYAMGWYSQAPGKERELVASISSGGSTNYADSVKGRFTISRDNAKNTVYLQMNSLKPEDTAVYYCNADSWTVNRRYYYYRYEYWGQGTQVTVSS	low polyreactivity
QVQLVESGGGLVQAGGSLRLICAASGITIKRSAMGWYRQPPGKEREFVATISQSGTSTYYADSVKGLFTISRDNAKNTVYLQMNSLKPEDTAVYYCAADYIGYWYGYYSWGHGTQVTVSS	low polyreactivity
QVQLLESGGGLVQPGGSLRLSCAASGSIFGRNVMGWYRQAPGKERELVAAISSSGGRTYYADSVKGRFTISRDNAKNNVYLQMNCLKPEDTAVYYCADRYGIKYYYWGQGTQVTVSS	high polyreactivity
QVQLVESGGGLVQAGGSLSLRCAGSGRTFRTYTMGWYRQARGKERELVAAISWSGSSTYYADSVKGRVTISRDHAKNTVYLQLNSLKPEDTAVYYCAARYVSRRFLGYYYWGQGTQVTVSS	high polyreactivity
QVQLVESGGGLVQAGGSLRLSCAASGSIFTADAMGWYRQAPGKERELVAAISRSGGRTYYADSVKGRFTISRDNAKNTDYLQMNSLKPEDTAVYYCAAAFASQYRVVKYYYWGQGTQVTVSS	high polyreactivity
QVQLVESGGGLVQAGGSLRLSCAASGSTLYWNAMGWYRQAPGKERELVADISSTGRTYYADSVKGRFTISRDNAKNTVYLQMNSLKPEDTAVYYCNADYFFEFDYWGQGTQVTVSS	low polyreactivity
QVQLVESGGGLVQAGGSLRLSCAASGRIFAQYAMGWYRQAPGKERELVADISSGVRTNADSVKGRFTISRDNAKNSVYLQMNSLKPEDTAVSYCNAYYIIFTRNDYWGQGTQVTVSS	low polyreactivity
QVQLVESGPGLVQAGGSLRLSCAASGRIFTANAMGWYRQAPGKERELVAAITTSDGTYYADSVKGRFTISRDNAKNTVYLQMYSLKPEVTAVYYCATDTATYPPAMDDWGQGTQVTVSS	low polyreactivity
